Paper PMC9201380 (2022)

Molecular target: SARS-CoV-2 S receptor-binding domain (residues 330-531), Avi-tagged and biotinylated (SARS-CoV-2, UniProt P0DTC2 330-531)
Assay: BLI

B1: DL28 (monovalent nanobody) (VHH)
VHH: QVQLQESGGGLVQAGGSLRLSCAASGSDFSSSTMGWYRQAPGKQREFVAISSEGSTSYAGSVKGRFTISRDNAKNTVYLQMNSLEPEDTAVYYCNVVDRWYDYWGQGTQVTVSA
koff: 0.000743 s⁻¹
